In IntAct's records for PubMed 19219046:

B1: ATP-dependent RNA helicase DDX19B (Homo sapiens), Q9UMR2-1 (parent)
chain: MATDSWALAVDEQEAAAESLSNLHLKEEKIKPDTNGAVVKTNANAEKTDEEEKEDRAAQSLLNKLIRSNLVDNTNQVEVLQRDPNSPLYSVKSFEELRLKPQLLQGVYAMGFNRPSKIQENALPLMLAEPPQNLIAQSQSGTGKTAAFVLAMLSQVEPANKYPQCLCLSPTYELALQTGKVIEQMGKFYPELKLAYAVRGNKLERGQKISEQIVIGTPGTVLDWCSKLKFIDPKKIKVFVLDEADVMIATQGHQDQSIRIQRMLPRNCQMLLFSATFEDSVWKFAQKVVPDPNVIKLKREEETLDTIKQYYVLCSSRDEKFQALCNLYGAITIAQAMIFCHTRKTASWLAAELSKEGHQVALLSGEMMVEQRAAVIERFREGKEKVLVTTNVCARGIDVEQVSVVINFDLPVDKDGNPDNETYLHRIGRTGRFGKRGLAVNMVDSKHSMNILNRIQEHFNKKIERLDTDDLDEIEKIAN

Variants of: B1
Details: with NUP214, P35658-1
Chain of NUP214, P35658-1 (P35658 whole entry): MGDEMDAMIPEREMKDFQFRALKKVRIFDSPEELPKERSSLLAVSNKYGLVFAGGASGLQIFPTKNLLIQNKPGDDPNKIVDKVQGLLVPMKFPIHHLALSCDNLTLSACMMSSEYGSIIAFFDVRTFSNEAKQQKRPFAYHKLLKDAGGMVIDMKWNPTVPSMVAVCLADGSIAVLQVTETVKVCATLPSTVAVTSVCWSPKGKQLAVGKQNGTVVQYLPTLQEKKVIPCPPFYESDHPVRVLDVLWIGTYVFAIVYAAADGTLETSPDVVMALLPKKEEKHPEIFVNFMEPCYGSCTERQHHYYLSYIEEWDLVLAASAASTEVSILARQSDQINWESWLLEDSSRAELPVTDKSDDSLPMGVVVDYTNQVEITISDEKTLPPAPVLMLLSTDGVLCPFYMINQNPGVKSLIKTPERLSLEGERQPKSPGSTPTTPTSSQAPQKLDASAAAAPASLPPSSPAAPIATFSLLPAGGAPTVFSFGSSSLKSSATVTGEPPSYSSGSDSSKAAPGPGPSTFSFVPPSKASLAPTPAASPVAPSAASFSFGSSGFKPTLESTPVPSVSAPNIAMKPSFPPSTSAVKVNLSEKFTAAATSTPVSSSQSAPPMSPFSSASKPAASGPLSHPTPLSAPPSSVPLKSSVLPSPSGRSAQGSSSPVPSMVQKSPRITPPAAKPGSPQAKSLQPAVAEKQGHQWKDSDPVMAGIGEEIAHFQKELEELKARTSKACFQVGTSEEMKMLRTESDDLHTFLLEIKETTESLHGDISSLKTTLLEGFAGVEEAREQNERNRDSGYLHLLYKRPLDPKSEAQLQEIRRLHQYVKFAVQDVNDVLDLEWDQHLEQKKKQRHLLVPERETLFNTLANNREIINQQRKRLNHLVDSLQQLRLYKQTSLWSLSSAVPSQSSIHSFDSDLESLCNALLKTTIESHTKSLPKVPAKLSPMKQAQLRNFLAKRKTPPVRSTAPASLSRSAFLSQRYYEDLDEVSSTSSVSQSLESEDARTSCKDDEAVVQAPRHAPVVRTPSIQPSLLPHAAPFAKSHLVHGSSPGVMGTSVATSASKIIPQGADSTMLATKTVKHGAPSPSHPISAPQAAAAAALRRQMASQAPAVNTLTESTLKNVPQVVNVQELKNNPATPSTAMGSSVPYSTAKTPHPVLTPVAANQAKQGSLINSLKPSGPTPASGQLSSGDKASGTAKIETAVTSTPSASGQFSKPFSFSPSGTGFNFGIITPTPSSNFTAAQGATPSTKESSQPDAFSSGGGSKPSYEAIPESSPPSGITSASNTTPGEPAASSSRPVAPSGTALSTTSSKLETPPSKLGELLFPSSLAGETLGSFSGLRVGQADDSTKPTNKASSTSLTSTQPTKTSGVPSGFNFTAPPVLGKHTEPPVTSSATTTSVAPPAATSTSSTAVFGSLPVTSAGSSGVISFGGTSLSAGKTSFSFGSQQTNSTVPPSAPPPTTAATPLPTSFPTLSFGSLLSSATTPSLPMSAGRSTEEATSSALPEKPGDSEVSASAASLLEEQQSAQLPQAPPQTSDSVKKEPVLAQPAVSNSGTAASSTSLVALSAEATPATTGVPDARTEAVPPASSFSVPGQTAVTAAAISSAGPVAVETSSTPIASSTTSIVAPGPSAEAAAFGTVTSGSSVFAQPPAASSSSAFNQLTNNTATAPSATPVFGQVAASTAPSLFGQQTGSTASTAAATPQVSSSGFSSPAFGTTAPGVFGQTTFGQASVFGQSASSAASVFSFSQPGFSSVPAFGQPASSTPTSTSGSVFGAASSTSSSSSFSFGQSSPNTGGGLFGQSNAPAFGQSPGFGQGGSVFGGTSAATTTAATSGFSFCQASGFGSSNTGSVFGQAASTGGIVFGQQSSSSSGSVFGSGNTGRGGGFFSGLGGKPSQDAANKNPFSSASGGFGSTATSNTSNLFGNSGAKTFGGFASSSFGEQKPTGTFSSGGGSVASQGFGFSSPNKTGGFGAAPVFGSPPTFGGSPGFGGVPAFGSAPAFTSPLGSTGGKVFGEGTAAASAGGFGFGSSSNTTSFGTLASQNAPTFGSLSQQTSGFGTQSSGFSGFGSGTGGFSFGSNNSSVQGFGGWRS

Row | effect of a mutation on the interaction | Variant
1 | disrupting interaction | MATDSWALAVDEQEAAAESLSNLHLKEEKIKPDTNGAVVKTNANAEKTDEEEKEDRAAQSLLNKLIRSNLVDNTNQVEVLQRDPNSPLYSVKSFEELRLKPQLLQGVYAMGFNRPSKIQENALPLMLAEPPQNLIAQSQSGTGKTAAFVLAMLSQVEPANKYPQCLCLSPTYELALQTGKVIEQMGKFYPELKLAYAVRGNKLERGQKISEQIVIGTPGTVLDWCSKLKFIDPKKIKVFVLDEADVMIATQGHQDQSARIQRMLPRNCQMLLFSATFEDSVWKFAQKVVPDPNVIKLKREEETLDTIKQYYVLCSSRDEKFQALCNLYGAITIAQAMIFCHTRKTASWLAAELSKEGHQVALLSGEMMVEQRAAVIERFREGKEKVLVTTNVCARGIDVEQVSVVINFDLPVDKDGNPDNETYLHRIGRTGRFGKRGLAVNMVDSKHSMNILNRIQEHFNKKIERLDTDDLDEIEKIAN [I258A]
2 | disrupting interaction | MATDSWALAVDEQEAAAESLSNLHLKEEKIKPDTNGAVVKTNANAEKTDEEEKEDRAAQSLLNKLIRSNLVDNTNQVEVLQRDPNSPLYSVKSFEELRLKPQLLQGVYAMGFNRPSKIQENALPLMLAEPPQNLIAQSQSGTGKTAAFVLAMLSQVEPANKYPQCLCLSPTYELALQTGKVIEQMGKFYPELKLAYAVRGNKLERGQKISEQIVIGTPGTVLDWCSKLKFIDPKKIKVFVLDEADVMIATQGHQDQSIDIQRMLPRNCQMLLFSATFEDSVWKFAQKVVPDPNVIKLKREEETLDTIKQYYVLCSSRDEKFQALCNLYGAITIAQAMIFCHTRKTASWLAAELSKEGHQVALLSGEMMVEQRAAVIERFREGKEKVLVTTNVCARGIDVEQVSVVINFDLPVDKDGNPDNETYLHRIGRTGRFGKRGLAVNMVDSKHSMNILNRIQEHFNKKIERLDTDDLDEIEKIAN [R259D]
3 | disrupting interaction | MATDSWALAVDEQEAAAESLSNLHLKEEKIKPDTNGAVVKTNANAEKTDEEEKEDRAAQSLLNKLIRSNLVDNTNQVEVLQRDPNSPLYSVKSFEELRLKPQLLQGVYAMGFNRPSKIQENALPLMLAEPPQNLIAQSQSGTGKTAAFVLAMLSQVEPANKYPQCLCLSPTYELALQTGKVIEQMGKFYPELKLAYAVRGNKLERGQKISEQIVIGTPGTVLRWCSKLKFIDPKKIKVFVLDEADVMIATQGHQDQSIRIQRMLPRNCQMLLFSATFEDSVWKFAQKVVPDPNVIKLKREEETLDTIKQYYVLCSSRDEKFQALCNLYGAITIAQAMIFCHTRKTASWLAAELSKEGHQVALLSGEMMVEQRAAVIERFREGKEKVLVTTNVCARGIDVEQVSVVINFDLPVDKDGNPDNETYLHRIGRTGRFGKRGLAVNMVDSKHSMNILNRIQEHFNKKIERLDTDDLDEIEKIAN [D223R]
4 | disrupting interaction | MATDSWALAVDEQEAAAESLSNLHLKEEKIKPDTNGAVVKTNANAEKTDEEEKEDRAAQSLLNKLIRSNLVDNTNQVEVLQRDPNSPLYSVKSFEELRLKPQLLQGVYAMGFNRPSKIQENALPLMLAEPPQNLIAQSQSGTGKTAAFVLAMLSQVEPANKYPQCLCLSPTYELALQTGKVIEQMGKFYPELKLAYAVRGNKLERGQKISEQIVIGTPGTVLDWCSKLKFIDPKKIKVFVLDEADVMIATQGHQDQSIRIQAMLPRNCQMLLFSATFEDSVWKFAQKVVPDPNVIKLKREEETLDTIKQYYVLCSSRDEKFQALCNLYGAITIAQAMIFCHTRKTASWLAAELSKEGHQVALLSGEMMVEQRAAVIERFREGKEKVLVTTNVCARGIDVEQVSVVINFDLPVDKDGNPDNETYLHRIGRTGRFGKRGLAVNMVDSKHSMNILNRIQEHFNKKIERLDTDDLDEIEKIAN [R262A]
